Measured values as given in the supplement of paper PMC5998384.

Legend:
HeLa Kyoto [1] = experiment: solubility in G1/S (NP-40 vs SDS abundance) (log2 ratio); higher = more soluble; conditions: cell cycle stage: G1/S
HeLa Kyoto [2] = experiment: melting temperature (median over replicates), in situ; higher = more thermally stable
HeLa Kyoto [3] = experiment: solubility change mitosis vs G1/S (difference of NP-40 vs SDS log2 ratios) (log2 ratio difference); higher = more soluble in mitosis
HeLa Kyoto [4] = experiment: thermal stability score vs G1/S (z-score of summed log2 fold changes over temperatures); higher = more thermally stable than in G1/S
[5] = cell cycle stage: early G1 (4.5 h after nocodazole release)
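Wherever melting temperature (median over replicates), in situ is given: HeLa Kyoto cells synchronized by double thymidine or nocodazole block, proteins quantified by TMT10plex mass spectrometry, three independent biological replicates.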
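Wherever solubility change mitosis vs G1/S (difference of NP-40 vs SDS log2 ratios) is given: synchronized HeLa Kyoto cells (double thymidine block for G1/S, nocodazole release for mitosis), protein amounts in NP-40 versus SDS lysates quantified by mass spectrometry, three biological replicates.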
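Wherever solubility in G1/S (NP-40 vs SDS abundance) is given: HeLa Kyoto cells arrested at G1/S by double thymidine block, proteins quantified by TMT10plex mass spectrometry in mild NP-40 versus SDS extracts, three biological replicates.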
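Wherever thermal stability score vs G1/S (z-score of summed log2 fold changes over temperatures) is given: synchronized HeLa Kyoto cells, proteins quantified by TMT10plex mass spectrometry, three biological replicates, mitosis taken 0.5 h after nocodazole release, G1/S directly after double thymidine block.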

Sequence	solubility in G1/S (log2) (HeLa Kyoto [1])	melting temperature (HeLa Kyoto [2]; cell cycle stage: G1/S)	melting temperature (HeLa Kyoto [2]; cell cycle stage: mitosis)	solubility change mitosis (log2) (HeLa Kyoto [3])	thermal stability score (HeLa Kyoto [4]; [5])	thermal stability score (HeLa Kyoto [4]; cell cycle stage: mitosis)
MASIMEGPLSKWTNVMKGWQYRWFVLDYNAGLLSYYTSKDKMMRGSRRGCVRLRGAVIGIDDEDDSTFTITVDQKTFHFQARDADEREKWIHALEETILRHTLQLQGLDSGFVPSVQDFDKKLTEADAYLQILIEQLKLFDDKLQNCKEDEQRKKIETLKETTNSMVESIKHCIVLLQIAKDQSNAEKHADGMISTINPVDAIYQPSPLEPVISTMPSQTVLPPEPVQLCKSEQRPSSLPVGPVLATLGHHQTPTPNSTGSGHSPPSSSLTSPSHVNLSPNTVPEFSYSSSEDEFYDADEFHQSGSSPKRLIDSSGSASVLTHSSSGNSLKRPDTTESLNSSLSNGTSDADLFDSHDDRDDDAEAGSVEEHKSVIMHLLSQVRLGMDLTKVVLPTFILERRSLLEMYADFFAHPDLFVSISDQKDPKDRMVQVVKWYLSAFHAGRKGSVAKKPYNPILGEIFQCHWTLPNDTEENTELVSEGPVPWVSKNSVTFVAEQVSHHPPISAFYAECFNKKIQFNAHIWTKSKFLGMSIGVHNIGQGCVSCLDYDEHYILTFPNGYGRSILTVPWVELGGECNINCSKTGYSANIIFHTKPFYGGKKHRITAEIFSPNDKKSFCSIEGEWNGVMYAKYATGENTVFVDTKKLPIIKKKVRKLEDQNEYESRSLWKDVTFNLKIRDIDAATEAKHRLEERQRAEARERKEKEIQWETRLFHEDGECWVYDEPLLKRLGAAKH [OSBPL9]	-0.0574	48.7 °C	49.2 °C	-0.142	0.00752	0.954
MASLLAKDAYLQSLAKKICSHSAPEQQARTRAGKTQGSETAGPPKKKRKKTQKKFRKREEKAAEHKAKSLGEKSPAASGARRPEAAKEEAAWASSSAGNPADGLATEPESVFALDVLRQRLHEKIQEARGQGSAKELSPAALEKRRRRKQERDRKKRKRKELRAKEKARKAEEATEAQEVVEATPEGACTEPREPPGLIFNKVEVSEDEPASKAQRRKEKRQRVKGNLTPLTGRNYRQLLERLQARQSRLDELRGQDEGKAQELEAKMKWTNLLYKAEGVKIRDDERLLQEALKRKEKRRAQRQRRWEKRTAGVVEKMQQRQDRRRQNLRRKKAARAERRLLRARKKGRILPQDLERAGLV [SURF6]	-1.46	56.5 °C	54.5 °C	1.25	-2.48	-6.87
MASMAAAIAASRSAVMSGNRPLDDRERKRFTYFSSLSPMARKIMQDKEKIREKYGPEWARLPPAQQDEIIDRCLVGPRAPAPRDPGDSEELTRFPGLRGPTGQKVVRFGDEDLTWQDEHSAPFSWETKSQMEFSISALSIQEPSNGTAASEPRPLSKASQGSQALKSSQGSRSSSLDALGPTRKEEEASFWKINAERSRGEGPEAEFQSLTPSQIKSMEKGEKVLPPCYRQEPAPKDREAKVERPSTLRQEQRPLPNVSTERERPQPVQAFSSALHEAAPSQLEGKLPSPDVRQDDGEDTLFSEPKFAQVSSSNVVLKTGFDFLDNW [C1ORF198]	-0.228	51.6 °C	53.2 °C	0.253	-0.542	-1
MASNDYTQQATQSYGAYPTQPGQGYSQQSSQPYGQQSYSGYSQSTDTSGYGQSSYSSYGQSQNTGYGTQSTPQGYGSTGGYGSSQSSQSSYGQQSSYPGYGQQPAPSSTSGSYGSSSQSSSYGQPQSGSYSQQPSYGGQQQSYGQQQSYNPPQGYGQQNQYNSSSGGGGGGGGGGNYGQDQSSMSSGGGSGGGYGNQDQSGGGGSGGYGQQDRGGRGRGGSGGGGGGGGGGYNRSSGGYEPRGRGGGRGGRGGMGGSDRGGFNKFGGPRDQGSRHDSEQDNSDNNTIFVQGLGENVTIESVADYFKQIGIIKTNKKTGQPMINLYTDRETGKLKGEATVSFDDPPSAKAAIDWFDGKEFSGNPIKVSFATRRADFNRGGGNGRGGRGRGGPMGRGGYGGGGSGGGGRGGFPSGGGGGGGQQRAGDWKCPNPTCENMNFSWRNECNQCKAPKPDGPGGGPGGSHMGGNYGDDRRGGRGGYDRGGYRGRGGDRGGFRGGRGGGDRGGFGPGKMDSRGEHRQDRRERPY [FUS]	-0.295	56.1 °C	54.8 °C	0.333	0.878	-3.18
MASPPRHGPPGPASGDGPNLNNNNNNNNHSVRKCGYLRKQKHGHKRFFVLRGPGAGGDEATAGGGSAPQPPRLEYYESEKKWRSKAGAPKRVIALDCCLNINKRADAKHKYLIALYTKDEYFAVAAENEQEQEGWYRALTDLVSEGRAAAGDAPPAAAPAASCSASLPGALGGSAGAAGAEDSYGLVAPATAAYREVWQVNLKPKGLGQSKNLTGVYRLCLSARTIGFVKLNCEQPSVTLQLMNIRRCGHSDSFFFIEVGRSAVTGPGELWMQADDSVVAQNIHETILEAMKALKELFEFRPRSKSQSSGSSATHPISVPGARRHHHLVNLPPSQTGLVRRSRTDSLAATPPAAKCSSCRVRTASEGDGGAAAGAAAAGARPVSVAGSPLSPGPVRAPLSRSHTLSGGCGGRGSKVALLPAGGALQHSRSMSMPVAHSPPAATSPGSLSSSSGHGSGSYPPPPGPHPPLPHPLHHGPGQRPSSGSASASGSPSDPGFMSLDEYGSSPGDLRAFCSHRSNTPESIAETPPARDGGGGGEFYGYMTMDRPLSHCGRSYRRVSGDAAQDLDRGLRKRTYSLTTPARQRPVPQPSSASLDEYTLMRATFSGSAGRLCPSCPASSPKVAYHPYPEDYGDIEIGSHRSSSSNLGADDGYMPMTPGAALAGSGSGSCRSDDYMPMSPASVSAPKQILQPRAAAAAAAAVPSAGPAGPAPTSAAGRTFPASGGGYKASSPAESSPEDSGYMRMWCGSKLSMEHADGKLLPNGDYLNVSPSDAVTTGTPPDFFSAALHPGGEPLRGVPGCCYSSLPRSYKAPYTCGGDSDQYVLMSSPVGRILEEERLEPQATPGPSQAASAFGAGPTQPPHPVVPSPVRPSGGRPEGFLGQRGRAVRPTRLSLEGLPSLPSMHEYPLPPEPKSPGEYINIDFGEPGARLSPPAPPLLASAASSSSLLSASSPASSLGSGTPGTSSDSRQRSPLSDYMNLDFSSPKSPKPGAPSGHPVGSLDGLLSPEASSPYPPLPPRPSASPSSSLQPPPPPPAPGELYRLPPASAVATAQGPGAASSLSSDTGDNGDYTEMAFGVAATPPQPIAAPPKPEAARVASPTSGVKRLSLMEQVSGVEAFLQASQPPDPHRGAKVIRADPQGGRRRHSSETFSSTTTVTPVSPSFAHNPKRHNSASVENVSLRKSSEGGVGVGPGGGDEPPTSPRQLQPAPPLAPQGRPWTPGQPGGLVGCPGSGGSPMRRETSAGFQNGLNYIAIDVREEPGLPPQPQPPPPPLPQPGDKSSWGRTRSLGGLISAVGVGSTGGGCGGPGPGALPPANTYASIDFLSHHLKEATIVKE [IRS2]	-0.000472	50.4 °C	50.3 °C	-0.0828	-0.748	0.717
MASPSLERPEKGAGKSEFRNQKPKPENQDESELLTVPDGWKEPAFSKEDNPRGLLEESSFATLFPKYREAYLKECWPLVQKALNEHHVNATLDLIEGSMTVCTTKKTFDPYIIIRARDLIKLLARSVSFEQAVRILQDDVACDIIKIGSLVRNKERFVKRRQRLIGPKGSTLKALELLTNCYIMVQGNTVSAIGPFSGLKEVRKVVLDTMKNIHPIYNIKSLMIKRELAKDSELRSQSWERFLPQFKHKNVNKRKEPKKKTVKKEYTPFPPPQPESQIDKELASGEYFLKANQKKRQKMEAIKAKQAEAISKRQEERNKAFIPPKEKPIVKPKEASTETKIDVASIKEKVKKAKNKKLGALTAEEIALKMEADEKKKKKKK [KRR1]	-1.22	51.3 °C	50.1 °C	0.79	3.32	4.5
